Tests used:
[1] = molecular target: IL-RI-Fc (a fusion of IL-1RI and Fc); assay: phage-displayed dAb; no trypsin, overnight, 37 C; biopanning on 1 nM IL-1RI-Fc
[2] = molecular target: IL-RI-Fc (a fusion of IL-1RI and Fc); assay: phage-displayed dAb; trypsin 10 µg/ml, overnight, 37 C; biopanning on 1 nM IL-1RI-Fc
[3] = molecular target: IL-RI-Fc (a fusion of IL-1RI and Fc); assay: phage-displayed dAb; no trypsin, 1 hr, room temp; biopanning on 1 nM IL-1RI-Fc
[4] = molecular target: IL-RI-Fc (a fusion of IL-1RI and Fc); assay: phage-displayed dAb; trypsin 100 µg/ml, overnight, room temp; biopanning on 1 nM IL-1RI-Fc
[5] = molecular target: IL-RI-Fc (a fusion of IL-1RI and Fc); assay: phage-displayed dAb; trypsin 10 µg/ml, 1 hr, room temp; biopanning on 1 nM IL-1RI-Fc
[6] = molecular target: IL-RI-Fc (a fusion of IL-1RI and Fc); assay: phage-displayed dAb; trypsin 10 µg/ml, overnight, room temp; biopanning on 1 nM IL-1RI-Fc
[7] = molecular target: IL-RI-Fc (a fusion of IL-1RI and Fc); assay: phage-displayed dAb; trypsin 100 µg/ml, overnight, 37 C; biopanning on 1 nM IL-1RI-Fc
[8] = molecular target: IL-RI-Fc (a fusion of IL-1RI and Fc); assay: phage-displayed dAb; trypsin 100 µg/ml, 1 hr, room temp; biopanning on 1 nM IL-1RI-Fc
IL-1R1 = assay: Receptor Binding Assay, inhibition of IL-1 binding to IL-RI
Chain of IL-1R1 (P14778 whole entry, the tested form may be a part): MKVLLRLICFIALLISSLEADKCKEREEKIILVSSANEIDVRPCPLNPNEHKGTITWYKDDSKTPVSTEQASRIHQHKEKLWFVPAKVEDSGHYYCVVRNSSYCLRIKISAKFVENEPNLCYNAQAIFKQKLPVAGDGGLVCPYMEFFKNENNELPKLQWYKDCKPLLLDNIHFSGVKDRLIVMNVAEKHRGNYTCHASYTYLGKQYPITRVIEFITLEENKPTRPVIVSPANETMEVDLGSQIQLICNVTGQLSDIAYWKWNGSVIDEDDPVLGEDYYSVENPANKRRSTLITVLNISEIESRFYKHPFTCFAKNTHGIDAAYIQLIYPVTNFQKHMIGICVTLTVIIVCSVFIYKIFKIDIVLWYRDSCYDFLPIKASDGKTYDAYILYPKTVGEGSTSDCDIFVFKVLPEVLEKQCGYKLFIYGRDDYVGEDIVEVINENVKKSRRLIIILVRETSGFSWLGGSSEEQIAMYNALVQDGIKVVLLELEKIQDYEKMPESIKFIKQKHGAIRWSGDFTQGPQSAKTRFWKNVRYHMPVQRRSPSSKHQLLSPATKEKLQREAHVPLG

[9] = molecular target: IL-RI-Fc (a fusion of IL-1RI and Fc); assay: phage-displayed dAb; no trypsin, overnight, room temp; biopanning on 1 nM IL-1RI-Fc

Chain of IL-RI-Fc (a fusion of IL-1RI and Fc) (P14778 whole entry, the tested form may be a part): as above

titre of phage after biopanning [1]: 7.2e+09
titre of phage after biopanning [2]: 3.84e+08
titre of phage after biopanning [3]: 6.6e+09
titre of phage after biopanning [4]: 2.16e+09
titre of phage after biopanning [5]: 7.2e+09
titre of phage after biopanning [6]: 7.2e+09
titre of phage after biopanning [7]: 2.04e+06
titre of phage after biopanning [8]: 1.8e+10
IC50 (IL-1R1): 0.28 nM
titre of phage after biopanning [9]: 7.8e+09
B1: DOM4-130-54 (protein)
VL: DIQMTQSPSSLSASVGDRVTITCRASQDIYLNLDWYQQKPGKAPKLLINFGSELQSGVPSRFSGSGYGTDFTLTISSLQPEDFATYYCQPSFYFPYTFGQGTKVEIKR

From US20100254972A1
